From PMC9826845, “Characterization of the Escherichia coli XPD/Rad3 iron-sulfur helicase YoaA in complex with the DNA polymerase III clamp loader subunit chi (χ)”

Target: YoaA (6xHis);chi (DNA polymerase III clamp loader subunit) (Escherichia coli;Escherichia coli, UniProt P76257;P28905 1-636;1-147, |)
Test: fluorescein quenching titration; 0.5 mM ATPgS; rough estimate, no saturation; assay buffer B (composition not in the material) with 0.5 mM ATPgS, 50 nM DNA, YoaA-chi 0.1 nM-2 uM (Kd titration) or 1 uM; temperature and pH not given
Conditions: protein: recombinant;recombinant, 6xHis (His-YoaA);, copies: 1;1, label: fluorescein, 20 bp, other end blunt

Sequence of YoaA (6xHis);chi (DNA polymerase III clamp loader subunit) (P76257 whole entry, chain 1 of 2): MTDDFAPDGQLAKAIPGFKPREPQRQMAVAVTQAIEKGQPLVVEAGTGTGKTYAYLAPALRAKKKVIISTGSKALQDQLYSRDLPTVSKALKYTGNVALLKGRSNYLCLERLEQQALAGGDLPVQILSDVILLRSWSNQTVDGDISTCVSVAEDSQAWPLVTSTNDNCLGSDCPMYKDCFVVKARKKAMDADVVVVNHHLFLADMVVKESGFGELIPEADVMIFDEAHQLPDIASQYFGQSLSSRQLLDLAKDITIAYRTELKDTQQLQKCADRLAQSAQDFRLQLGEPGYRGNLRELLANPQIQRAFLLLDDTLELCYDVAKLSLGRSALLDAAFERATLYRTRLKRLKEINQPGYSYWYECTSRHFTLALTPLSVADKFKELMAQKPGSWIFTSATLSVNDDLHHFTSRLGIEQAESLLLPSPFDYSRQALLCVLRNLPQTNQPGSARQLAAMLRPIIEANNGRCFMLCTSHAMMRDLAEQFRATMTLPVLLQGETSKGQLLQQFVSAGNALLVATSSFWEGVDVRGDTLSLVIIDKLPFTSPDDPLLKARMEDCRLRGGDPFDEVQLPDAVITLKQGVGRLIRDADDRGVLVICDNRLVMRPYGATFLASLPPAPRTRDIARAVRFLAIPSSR
Sequence of YoaA (6xHis);chi (DNA polymerase III clamp loader subunit) (P28905 whole entry, chain 2 of 2): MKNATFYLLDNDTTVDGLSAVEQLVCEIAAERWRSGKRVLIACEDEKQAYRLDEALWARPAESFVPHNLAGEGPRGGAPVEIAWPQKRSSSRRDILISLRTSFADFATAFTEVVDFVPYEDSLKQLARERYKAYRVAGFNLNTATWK

Row | Binder | Kd (fork: 35 nt 5' overhang on strand 1, 10 nt 3' overhang on strand 2) [nM] | Kd (35 nt 5' overhang on strand 1) [nM]
1 | B3 forked duplex (S4 + S5) (dsDNA, fluorescein at T15 of strand 2 (printed F, written as T)) DNA 1: TTTTTTTTTTTTTTTTTTTTTTTTTTTTTTTTTTTATAAAAGGGACATTCTGGCC DNA 2: GGCCAGAATGTCCCTTTTATTACTGGTCGT | ~328 | –
2 | B2 5' overhang duplex (S18 + S5) (dsDNA, fluorescein at T15 of strand 2 (printed F, written as T), 6 nt from junction) DNA 1: TTTTTTTTTTTTTTTTTTTTTTTTTTTTTTTTTTTATAAAAGGGACATTCTGGCC DNA 2: GGCCAGAATGTCCCTTTTAT | – | ~350
